Measurements reported in patent US20230002480A1.

Experiments:
Assay in all cases: cell-based or functional assay
[1] = target: HIV-1 Env of pseudovirus 3103.v3.c10 (HIV-1)
[2] = target: HIV-1 Env of pseudovirus C1080.c03 (HIV-1)
[3] = target: HIV-1 Env of pseudovirus P1981_C5_3 (HIV-1)
[4] = target: HIV-1 Env of pseudovirus Ce2010_F5 (HIV-1)
[5] = target: HIV-1 Env of pseudovirus HIV-16055-2.3 (HIV-1)
[6] = target: HIV-1 Env of pseudovirus CAAN5342.A2 (HIV-1)
[7] = target: HIV-1 Env of pseudovirus 1012_11_TC21_3257 (HIV-1)
[8] = target: HIV-1 Env of pseudovirus X1254_c3 (HIV-1)
[9] = target: HIV-1 Env of pseudovirus T257-31 (HIV-1)
[10] = target: HIV-1 Env of pseudovirus 6240_08_TA5_4622 (HIV-1)
[11] = target: HIV-1 Env of pseudovirus T250-4 (HIV-1)
[12] = target: HIV-1 Env of pseudovirus ZM53M.PB12 (HIV-1)
[13] = target: HIV-1 Env of pseudovirus 263-8 (HIV-1)
[14] = target: HIV-1 Env of pseudovirus HIV-001428-2.42 (HIV-1)
[15] = target: HIV-1 Env of pseudovirus TRJO4551.58 (HIV-1)
[16] = target: HIV-1 Env of pseudovirus 211-9 (HIV-1)
[17] = target: HIV-1 Env of pseudovirus 928-28 (HIV-1)
[18] = target: HIV-1 Env of pseudovirus 3016.v5.c45 (HIV-1)
[19] = target: HIV-1 Env of pseudovirus 7030102001E5(Rev-) (HIV-1)
[20] = target: HIV-1 Env of pseudovirus 235-47 (HIV-1)
[21] = target: HIV-1 Env of pseudovirus ZM197M.PB7 (HIV-1)
[22] = target: HIV-1 Env of pseudovirus RHPA4259.7 (HIV-1)
[23] = target: HIV-1 Env of pseudovirus MS208.A1 (HIV-1)
[24] = target: HIV-1 Env of pseudovirus 3365.v2.c2 (HIV-1)
[25] = target: HIV-1 Env of pseudovirus 0815.v3.c3 (HIV-1)
[26] = target: HIV-1 Env of pseudovirus Ce0682_E4 (HIV-1)
[27] = target: HIV-1 Env of pseudovirus Ce2060_G9 (HIV-1)
[28] = target: HIV-1 Env of pseudovirus ZM109F.PB4 (HIV-1)
[29] = target: HIV-1 Env of pseudovirus Ce1176_A3 (HIV-1)
[30] = target: HIV-1 Env of pseudovirus 6952.v1.c20 (HIV-1)
[31] = target: HIV-1 Env of pseudovirus X1632_S2_B10 (HIV-1)
[32] = target: HIV-1 Env of pseudovirus BJOX028000.10.3 (HIV-1)
[33] = target: HIV-1 Env of pseudovirus 231966.c02 (HIV-1)
[34] = target: HIV-1 Env of pseudovirus BJOX009000.02.4 (HIV-1)
[35] = target: HIV-1 Env of pseudovirus 191955_A11 (HIV-1)
[36] = target: HIV-1 Env of pseudovirus 9004SS_A3_4 (HIV-1)

VRC01 (antibody) was tested, and the IC50, titer in TZM.bl cells [1] was 0.93 µg/mL, the IC80, titer in TZM.bl cells [1] was 2.49 µg/mL and the IC50, titer in TZM.bl cells [2] was 3.4 µg/mL. The IC80, titer in TZM.bl cells [2] was 14.4 µg/mL, the IC50, titer in TZM.bl cells [3] was 0.46 µg/mL and the IC80, titer in TZM.bl cells [3] was 1.26 µg/mL. The IC50, titer in TZM.bl cells [4] was 0.32 µg/mL, the IC80, titer in TZM.bl cells [4] was 1.07 µg/mL and the IC50, titer in TZM.bl cells [5] was 0.08 µg/mL. The IC80, titer in TZM.bl cells [5] was 0.26 µg/mL, the IC50, titer in TZM.bl cells [6] was 0.82 µg/mL and the IC80, titer in TZM.bl cells [6] was 2.8 µg/mL. For the same substance, the IC50, titer in TZM.bl cells [7] was 0.12 µg/mL, the IC80, titer in TZM.bl cells [7] was 0.32 µg/mL and the IC50, titer in TZM.bl cells [8] was 0.07 µg/mL. For the same substance, the IC80, titer in TZM.bl cells [8] was 0.19 µg/mL, the IC50, titer in TZM.bl cells [9] was 2.8 µg/mL and the IC80, titer in TZM.bl cells [9] was 8.66 µg/mL. The IC50, titer in TZM.bl cells [10] was 0.61 µg/mL, the IC80, titer in TZM.bl cells [10] was 1.82 µg/mL and the IC50, titer in TZM.bl cells [11] was > 50 µg/mL. For the same substance, the IC80, titer in TZM.bl cells [11] was > 50 µg/mL, the IC50, titer in TZM.bl cells [12] was 1.3 µg/mL and the IC80, titer in TZM.bl cells [12] was 4 µg/mL. For the same substance, the IC50, titer in TZM.bl cells [13] was 0.2 µg/mL, the IC80, titer in TZM.bl cells [13] was 0.55 µg/mL and the IC50, titer in TZM.bl cells [14] was 0.02 µg/mL. For the same substance, the IC80, titer in TZM.bl cells [14] was 0.06 µg/mL, the IC50, titer in TZM.bl cells [15] was 0.08 µg/mL and the IC80, titer in TZM.bl cells [15] was 0.21 µg/mL. For the same substance, the IC50, titer in TZM.bl cells [16] was 14.3 µg/mL, the IC80, titer in TZM.bl cells [16] was > 50 µg/mL and the IC50, titer in TZM.bl cells [17] was 0.41 µg/mL. The IC80, titer in TZM.bl cells [17] was 1.7 µg/mL, the IC50, titer in TZM.bl cells [18] was 0.16 µg/mL and the IC80, titer in TZM.bl cells [18] was 0.42 µg/mL. The IC50, titer in TZM.bl cells [19] was 0.54 µg/mL, the IC80, titer in TZM.bl cells [19] was 2.08 µg/mL and the IC50, titer in TZM.bl cells [20] was 0.04 µg/mL. It also gave an IC80, titer in TZM.bl cells [20] of 0.17 µg/mL, an IC50, titer in TZM.bl cells [21] of 0.36 µg/mL and an IC80, titer in TZM.bl cells [21] of 1.6 µg/mL. For the same substance, the IC50, titer in TZM.bl cells [22] was 0.06 µg/mL, the IC80, titer in TZM.bl cells [22] was 0.185 µg/mL and the IC50, titer in TZM.bl cells [23] was 0.1 µg/mL. It also gave an IC80, titer in TZM.bl cells [23] of 0.46 µg/mL, an IC50, titer in TZM.bl cells [24] of 0.06 µg/mL and an IC80, titer in TZM.bl cells [24] of 0.17 µg/mL. For the same substance, the IC50, titer in TZM.bl cells [25] was 0.06 µg/mL, the IC80, titer in TZM.bl cells [25] was 0.13 µg/mL and the IC50, titer in TZM.bl cells [26] was 0.08 µg/mL. The IC80, titer in TZM.bl cells [26] was 0.48 µg/mL, the IC50, titer in TZM.bl cells [27] was 0.29 µg/mL and the IC80, titer in TZM.bl cells [27] was 1.48 µg/mL. The IC50, titer in TZM.bl cells [28] was 0.13 µg/mL, the IC80, titer in TZM.bl cells [28] was 0.75 µg/mL and the IC50, titer in TZM.bl cells [29] was 2.25 µg/mL. It also gave an IC80, titer in TZM.bl cells [29] of 8.1 µg/mL, an IC50, titer in TZM.bl cells [30] of 0.04 µg/mL and an IC80, titer in TZM.bl cells [30] of 0.12 µg/mL. The IC50, titer in TZM.bl cells [31] was 0.12 µg/mL and the IC80, titer in TZM.bl cells [31] was 0.74 µg/mL.
In the case of N49P7.2 (antibody), the IC50 [1] is reported as 0.222 µg/mL, the IC80 [1] is reported as 0.57 µg/mL and the MPI [1] is reported as 100. For the same substance, the IC50 [2] was 0.279 µg/mL, the IC80 [2] was 1.76 µg/mL and the MPI [2] was 100. It also gave an IC50 [3] of 0.258 µg/mL, an IC80 [3] of 0.716 µg/mL and an MPI [3] of 100. The IC50 [32] was 0.322 µg/mL, the IC80 [32] was 1.49 µg/mL and the MPI [32] was 100. For the same substance, the IC50 [33] was 0.233 µg/mL, the IC80 [33] was 1.11 µg/mL and the MPI [33] was 100. The IC50 [34] was > 50 µg/mL, the IC80 [34] was > 50 µg/mL and the MPI [34] was 43. The IC50 [8] was 27.5 µg/mL, the IC80 [8] was > 50 µg/mL and the MPI [8] was 53. It also gave an IC50 [9] of 0.627 µg/mL, an IC80 [9] of 1.79 µg/mL and an MPI [9] of 100. For the same substance, the IC50 [11] was > 50 µg/mL, the IC80 [11] was > 50 µg/mL and the MPI [11] was 15. It also gave an IC50 [13] of 0.095 µg/mL, an IC80 [13] of 0.641 µg/mL and an MPI [13] of 100. It also gave an IC50 [16] of 0.363 µg/mL, an IC80 [16] of 1.22 µg/mL and an MPI [16] of 100. The IC50 [17] was 0.347 µg/mL, the IC80 [17] was 1.11 µg/mL and the MPI [17] was 100. The IC50 [18] was 2.77 µg/mL, the IC80 [18] was 23.9 µg/mL and the MPI [18] was 90. For the same substance, the IC50 [35] was 44.5 µg/mL, the IC80 [35] was > 50 µg/mL and the MPI [35] was 56. It also gave an IC50 [20] of 0.127 µg/mL, an IC80 [20] of 1.03 µg/mL and an MPI [20] of 90. It also gave an IC50 [36] of 0.266 µg/mL, an IC80 [36] of 1.62 µg/mL and an MPI [36] of 100. It also gave an IC50 [24] of 0.066 µg/mL, an IC80 [24] of 0.267 µg/mL and an MPI [24] of 100. The IC50 [25] was 0.023 µg/mL, the IC80 [25] was 0.103 µg/mL and the MPI [25] was 100. For the same substance, the IC50 [30] was > 50 µg/mL, the IC80 [30] was > 50 µg/mL and the MPI [30] was 0. The IC50 [31] was > 50 µg/mL, the IC80 [31] was > 50 µg/mL and the MPI [31] was 22.
